Earlier results, collected in publication PMC3490216.

How the values were obtained:
VPAC1 receptor = VPAC1 receptor (UniProt P32241)
VPAC2 receptor = VPAC2 receptor (UniProt P41587)
Chain of UniProt P41587 (P41587 24-438): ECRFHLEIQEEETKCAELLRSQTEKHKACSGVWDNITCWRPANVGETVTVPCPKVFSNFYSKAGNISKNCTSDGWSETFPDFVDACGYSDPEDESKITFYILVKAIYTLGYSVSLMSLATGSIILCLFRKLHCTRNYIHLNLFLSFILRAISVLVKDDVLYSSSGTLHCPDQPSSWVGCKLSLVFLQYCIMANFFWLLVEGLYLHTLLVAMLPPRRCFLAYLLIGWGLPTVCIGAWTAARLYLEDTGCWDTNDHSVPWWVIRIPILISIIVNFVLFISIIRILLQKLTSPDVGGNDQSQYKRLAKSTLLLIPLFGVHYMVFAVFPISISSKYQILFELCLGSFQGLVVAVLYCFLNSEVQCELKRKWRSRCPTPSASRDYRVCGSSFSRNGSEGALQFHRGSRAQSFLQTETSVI

Chain of UniProt P32241 (P32241 31-457): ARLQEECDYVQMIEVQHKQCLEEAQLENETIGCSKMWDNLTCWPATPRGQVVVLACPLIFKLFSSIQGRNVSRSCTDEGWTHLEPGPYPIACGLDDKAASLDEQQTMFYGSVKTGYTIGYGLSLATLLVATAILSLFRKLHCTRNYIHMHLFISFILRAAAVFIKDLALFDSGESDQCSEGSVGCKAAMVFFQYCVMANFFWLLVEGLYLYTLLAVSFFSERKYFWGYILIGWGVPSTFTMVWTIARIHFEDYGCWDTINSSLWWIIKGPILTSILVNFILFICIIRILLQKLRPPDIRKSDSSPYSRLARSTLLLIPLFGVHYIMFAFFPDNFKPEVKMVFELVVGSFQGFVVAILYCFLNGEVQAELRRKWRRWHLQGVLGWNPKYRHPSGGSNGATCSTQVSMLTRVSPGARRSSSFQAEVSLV

## VIP (from UniProt P01282)
VPAC1 receptor
  Kd: 3 nM
VPAC2 receptor
  Kd: 3 nM
